This is an account of results in article PMC12207360, “Hyperpolarization Modulation of the T‐Type hCav3.2 Channel by Human Synenkephalin [1–53], a Shrew Neurotoxin Analogue without Paralytic Effects” (Angewandte Chemie (International Ed. in English), 2025).

Where no end group is shown, it is not given here.

Series [1] deals with glutamyl endopeptidase (Glu-C). As to the kind of experiment: Glutamyl endopeptidase (Glu-C) digestion. The settings on record: intact peptide, without disulfide reduction. Here is the method:
(§1) To determine the connectivity of disulfide bonds in synthetic 2, enzymatic digestion and subsequent fragment peptide analysis were performed. […] However, due to high proteolytic stability, analysis of these degraded products provided little information on the disulfide bond connectivity in 2. To perform stepwise S‐alkylation with limiting reduction of disulfide bonds,^[ [52], [53] ^] 2 was denatured with 6 M aq. guanidine hydrochloride (GdmCl)/0.1 M aq. citrate, followed by tris(2‐carboxyethyl)phosphine (TCEP) reduction and Michael addition to N‐ethylmaleimide (NEM). As a result, we obtained six kinds of S‐alkylated products (2SS‐a/b/c and 1SS‐a/b/c) with one or two disulfide bonds cleaved, respectively, along with unreacted 2 (3SS) and a fully S‐alkylated product (0SS) (Scheme 1a and Figure S4a). HPLC‐purified 1SS‐a (3) and 1SS‐b (4), which have different patterns of four Cys(S‐Nem) residues, were then reduced with DTT and alkylated with iodoacetamide.

Series [2] deals with trypsin. The experiment in a line: Trypsin digestion. Conditions: intact peptide, without disulfide reduction. Here is the method: as §1
The test system of series [3] is several enzymes. As to the kind of experiment: Susceptibility to several enzymes / degradation. The settings on record: intact hSYN; compared with paralytic effect of BPP2 on mealworms. The method, then: as §1
The format of series [4] is physicochemical. The settings on record: cysteine/cystine redox condition, 20% EtOH / 0.1 M aq. NH4OAc, pH 8.5, 37 °C; misfolded products predominantly converted to 2. From the text:
We first examined the preparation of hSYN from the linear precursor peptide 1 (Scheme 1a). Oxidation of 1 in air or with DMSO gave only misfolded analogues with two (2SS) and/or three (3SS) disulfide bonds (Figure S1a,b). Meanwhile, a redox condition using cysteine / cystine in EtOH / aq. NH4OAc^[ [51] ^] smoothly promoted the formation of three disulfide bonds to afford hSYN (2) in 65% yield almost as a single isomer, along with trace amounts of misfolded 3SS analogue. […]
SH 前述の 22 の混合物に、前述のバッファーSHB (290 µL; 第四章第一節第四項) に溶解したSH 21SH
N-terminal segment(7.2 mg, 2.1 µmol) と TCEP-HCl (0.32 mg, 1.1 µmol) C-terminal segmentを加えた。6 M 水酸化ナトリウム水溶液1 で反応溶液を pH 7.0 に調整した後、室温で 22 時間攪拌した。得られた混合物を ODS カ
ラムクロマトグラフィー [COSMOSIL 75 C18 OPN (φ 8 x 8 mm), MeCN / H2O (0.1% TFA) = 0:1 Linear peptide 1. […]
rate 1.0 mL/min, UV 215 nm (A; 0.1% aq. TFA, B; 0.08% TFA/MeCN) ]. MS (MALDI-TO F ) m/z 3001.0 (calculated for […]
2: tR 12.2 min [Develosil® ODS HG-5 (5 µm, f 4.6 mm × 250 mm), temp. […] 40 °C, 25% for 10 min and 25–45% linear gradient for 20 min, flow rate […], UV215 nm (A; 0.1% aq. TFA, B; 0.08% TFA/MeCN), see Figure S7]; MS (MALDI-TO F ) m/z 2998.0 (calculated […]

On to “human synenkephalin [1–53] (ECSQDCATCSYRLVRPADINFLACVMECEGKLPSLKIWETCKELLQLSKPELP; disulfide (positions not given here); also: Type II disulfides, places not given here; UniProt P01210 25-77, looked up, fragment) [compound 2, human synenkephalin N-terminal part [1–53], three disulfide bonds Cys(I)–Cys(V), Cys(II)–Cys(IV), Cys(III)–Cys(VI)]”, for which the “proteolytic stability toward Glu-C” value in series [1] is “partially digested”. In addition, the “proteolytic stability toward trypsin” value in series [2] is reported as “partially digested”. In addition, the enzymatic degradation entry in series [3] was “susceptible to several enzymes, its degradation was much slower than the paralytic effect of BPP2 on mealworms”. The thermodynamic stability result in series [4] is reported as “most thermodynamically stable”.
